Experimental data reported in patent US20180243435A1 (AbbVie / Abbott, published 2018).
Numbering of substitutions follows the chain as printed.

B1: SC16.23 (antibody, V domains shown)
VH: QVTLKESGPGILQPSQTLSLTCSFSGFSLSTSNTGIGWIRQPSGTGLEWLAHIWWNDDKYYNPSLKSRLTISKETSNNQVFLKITNVDTADTASYFCVQIGRDYSNYAWYFDVWGAGTTVTVSS
VL: QIVLTQSPAIMSASPGEKVTLTCSASSSVSSRYLYWYQQKPGSSPKLWIYSTSNLASGVPARFSGSGSGTSYSLIISSMEAEDAASYFCHQWSNYPLTFGAGTKLELK
notes: murine hybridoma mAb
B2: SC16.34 (antibody, V domains shown)
VH: QIQLVQSGPELKRPGETVKISCKASGYTFTNYGMNWVKQAPGKGLKWMGWINTYTGDPTYADDFKGRFAFSLETSASTAYLQINNLKNEDTATYFCARIGGNSPSDYWGQGTSLTVSS
VL: SIVMTQTPKFLLVSAGDRVTITCKASQSVSNDVAWYQQKPGQSPKLLIYYASNRYSGVPDRFTGSGYGTDFTFTISTVQAEDLAVYFCQQDYSSPWTFGGGTKLEIK
notes: murine hybridoma mAb
B3: SC16.56 (antibody, V domains shown)
VH: B2 VH with R13K, G49A, D57E, Y80S, N84I, G101D, N102S, S113T
VL: B2 VL with A34V, S56T, T63A, T72S, S93T, K107R
notes: murine hybridoma mAb
B4: SC16.65 (antibody, V domains shown)
VH: QVTLKESGPGILQPSQTLSLTCSFSGFSLSTSGMGVGWIRQPSGKGLEWLALIWWDDVKRYNPALKSRLTISKDASSSQVFLKIASVDTADTATYYCARIASYDYDVVYAMDYWGQGTSVSVSS
VL: QIVLTQSPALMSASPGEKVTMTCSVTSSVSYMYWYQQKPRSSPKPWIYLTSNLASGVPARFSGSGSGTSYSLTISSVEAEDAATYYCQQWRNNPFTFGSGTKVEIK
notes: murine hybridoma mAb

Tests used:
[1] = target: T1, DLL3 extracellular domain (amino acids 27-466) displayed on yeast (human, UniProt Q9NYJ7 27-466); assay: fine epitope mapping (phage display peptide library or yeast display of DLL3 ECD mutants)
T1 construct: also called DLL3 ECD; wild type DLL3 ECD
T1 sequence: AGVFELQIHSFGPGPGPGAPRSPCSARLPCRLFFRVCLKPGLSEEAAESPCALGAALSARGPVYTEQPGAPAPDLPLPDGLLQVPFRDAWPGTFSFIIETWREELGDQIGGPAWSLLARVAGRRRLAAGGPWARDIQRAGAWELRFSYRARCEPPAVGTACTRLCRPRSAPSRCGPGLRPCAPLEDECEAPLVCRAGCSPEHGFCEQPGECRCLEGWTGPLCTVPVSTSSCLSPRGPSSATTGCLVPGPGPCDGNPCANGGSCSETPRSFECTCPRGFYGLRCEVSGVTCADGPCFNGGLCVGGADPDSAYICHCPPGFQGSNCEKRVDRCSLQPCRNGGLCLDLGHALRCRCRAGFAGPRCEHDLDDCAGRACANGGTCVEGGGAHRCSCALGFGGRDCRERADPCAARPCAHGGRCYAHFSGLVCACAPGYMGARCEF

[2] = target: T2, DLL3 on DLL3-expressing HEK293T cells (human, UniProt Q9NYJ7 27-618); assay: immunohistochemistry on HEK293T parental vs DLL3-expressing cell pellets
T2 construct: Cells were formalin fixed and paraffin embedded for IHC; also called DLL3-overexpressing HEK293T cell pellets; DLL3-expressing HEK293T FFPE sections
T2 sequence: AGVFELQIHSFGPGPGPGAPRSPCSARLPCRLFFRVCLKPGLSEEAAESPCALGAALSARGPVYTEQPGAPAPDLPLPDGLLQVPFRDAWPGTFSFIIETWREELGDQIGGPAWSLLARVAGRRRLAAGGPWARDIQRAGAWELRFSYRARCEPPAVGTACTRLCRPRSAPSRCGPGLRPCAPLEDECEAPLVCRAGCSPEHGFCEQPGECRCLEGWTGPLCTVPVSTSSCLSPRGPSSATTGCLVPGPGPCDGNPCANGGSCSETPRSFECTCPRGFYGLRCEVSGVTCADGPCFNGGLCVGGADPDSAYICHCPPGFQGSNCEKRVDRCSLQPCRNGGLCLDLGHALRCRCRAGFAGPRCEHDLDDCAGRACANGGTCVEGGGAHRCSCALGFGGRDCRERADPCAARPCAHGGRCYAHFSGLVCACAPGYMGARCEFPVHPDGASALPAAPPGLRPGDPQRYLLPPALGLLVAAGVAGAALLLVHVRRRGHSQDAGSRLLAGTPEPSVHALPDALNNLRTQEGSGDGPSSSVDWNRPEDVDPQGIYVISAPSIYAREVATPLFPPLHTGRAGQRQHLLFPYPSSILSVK
Protocol: (§1) In order to identify an IHC-compatible anti-DLL3 antibody, IHC was performed on HEK293T parental cell pellets or DLL3-expressing HEK293T cell pellets using numerous anti-DLL3 antibodies of the invention. Several murine anti-DLL3 antibodies (including SC16.65) were able to specifically detect DLL3-overexpressing HEK293T cell pellets more effectively than other anti-DLL3 antibodies of the invention that were tested (data not shown). The ability of these antibodies to specifically detect DLL3 was confirmed by a competition experiment in which the relevant anti-DLL3 antibody was mixed with a 5× molar ratio excess of hDLL3-His protein and then incubated with DLL3-expressing HEK293T formalin fixed and paraffin embedded (FFPE) sections.

human DLL3-His protein = target: T3, human DLL3-His protein (human, UniProt Q9NYJ7 27-492); assay: IHC competition: antibody mixed with a 5x molar ratio excess of hDLL3-His before staining FFPE sections
T3 construct: Purified from supernatants of CHO-S cells; also called hDLL3-His; recombinant DLL3-His; not shown: His tag
T3 sequence: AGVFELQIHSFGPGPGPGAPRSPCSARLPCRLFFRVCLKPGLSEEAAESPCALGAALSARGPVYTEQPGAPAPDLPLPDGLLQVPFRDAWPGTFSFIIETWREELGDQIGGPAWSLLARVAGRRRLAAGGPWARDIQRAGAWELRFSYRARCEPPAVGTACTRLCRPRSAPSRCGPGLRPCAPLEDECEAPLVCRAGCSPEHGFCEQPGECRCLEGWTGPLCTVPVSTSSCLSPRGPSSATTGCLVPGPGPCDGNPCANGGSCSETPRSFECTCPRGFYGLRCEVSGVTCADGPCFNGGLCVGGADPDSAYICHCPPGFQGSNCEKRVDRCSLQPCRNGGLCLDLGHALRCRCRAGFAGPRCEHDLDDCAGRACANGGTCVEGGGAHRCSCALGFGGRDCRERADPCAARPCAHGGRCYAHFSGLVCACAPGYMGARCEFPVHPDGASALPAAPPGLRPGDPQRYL
Protocol: as §1

Binder | binding result [1] | binding result [2] | binding result (human DLL3-His protein)
B1 | binds | – | –
B2 | binds | – | –
B3 | binds | – | –
B4 | – | binds | binds
